Biological target: preF^C (soluble RSV F A2 prefusion F in the Cav1 background with V185Y, K226Y, N428Y, L512V, L513V and Y519F, before crosslinking) (respiratory syncytial virus (RSV F A2) | not stated) (UniProt P03420)
Experiment: cross-linking; dityrosine crosslinking reaction (Arthromyces ramosus peroxidase and H2O2) of the purified protein; reducing SDS-PAGE (TCEP, 95 °C), Coomassie stain, gel shift from monomer to trimer

Work on “preF^C (soluble RSV F A2 prefusion F in the Cav1 background with V185Y, K226Y, N428Y, L512V, L513V and Y519F, before crosslinking) (from UniProt P03420 26-109) (natural protein)” yielded a stoichiometry N of 3.

— article PMC10940300
